Source: the supplement of paper PMC12764529
± gives the half width of the 95% confidence interval.

Experiment: folding stability dG unfold (combined trypsin and chymotrypsin); higher = more stable
Procedure, shortened: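 K50 was inferred by Bayesian fitting of sequencing counts obtained after protease digestion of designed mini-proteins. Unfolding free energy was derived by comparison with a sequence-predicted unfolded-state K50 and a shared folded-state K50, for each protease or both combined. The mini-proteins were under 80 residues, had no cysteine, were carried in a PA-tagged cDNA display construct, and were kept only if AlphaFold2 dimer inter-PAE exceeded 15.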

Sequence | folding stability dG unfold [kcal/mol]
SAGGSAGGSAGGMPVPRRLEIVVEPEYTEEEIEKIKKELIENGNPEIEEVVVVLPPNLESAGGSAGGSAGGS [r10_233_JUSTAS] | -0.385 ± 0.36
SAGGSAGGMFVPEGKTVTVKLPGNETVTVKVKAGNSRPFDSLEEIEAFAAQPGFDIEVSSSPAKSAGGSAGG [r6_433_JUSTAS] | -0.722 ± 0.21
SAGGSAGGSAGGNKIHIMMPYDWAEEFANELQQQGIDPDNVKIEVHPMEMPPPPPPGDKSAGGSAGGSAGGS [r10_602_TrROS] | < -1
SAGGSAGGSAGGMTITVPVEGVEEAIEKAKKEHPNTEIKITLLKPGGEKATTRTVKILGSAGGSAGGSAGGS [r10_741_JUSTAS] | -0.951 ± 0.29
SAGGISVEIYPPNGKKVELEGDTIPELMDKFPPGGNYVIKIEQPHVNPGNGKKQPMEMEFRVPPDDFSAGGS [r16_806_TrROS] | -0.697 ± 0.33
SGMDVFVASDPGPSYLRAEARLPGGESRVLTSGPPEEARALVERLAAEEDPAMAVRRVEEVPPGELPPELSA [r9_137_JUSTAS] | < -1
MTEKKEESLGEKKRITTTKPQEDGNPVVTERIIDPNGTIEKVIVKKSSPNKPTTEELPPFSTSNKEIVEKLS [r1_301_JUSTAS] | -0.821 ± 0.4
SAGGSAGGSAGGMTLTITDDDPSVGPRTFTLTEPGSSKTTTLTSAEMEALKAAGPVTVAGSAGGSAGGSAGG [r7_452_JUSTAS] | -0.209 ± 0.23
SAGMKVTVSPASLVFDPATGRLLRPVLVTVEDTGGGGKTPAEEQAAAAEATRRALAAELAPRTGSALDLSAG [r5_333_JUSTAS] | 0.37 ± 0.091
SAGGSAGGSAGGGRVLRLADGKWRLVELPDGSVVLVPENVPVLDPEAKEPVLVAPVLPLDSAGGSAGGSAGG [r7_968_TrMRF] | 0.223 ± 0.06
SAMNVTLTKHPDGTYTVGATLPGYSPVSTQTIPSSVPSYTVTYRTPDEVLKVTYKDSGLTPERVPISRLSAG [r14_403_JUSTAS] | -0.0343 ± 0.044
SAGGSASTTPIKFPNGFEVTKIEEGKGLVYIKYSPENPEILEKLGVEALETNENEVIVPREAIEKKSAGGSA [r15_984_JUSTAS] | -0.993 ± 0.36
SAGGSAGGSAGMETRLIAVLEDGEAVFEDGGTLITVPADEDVADIPDGGGLGTIYIPKDGSAGGSAGGSAGG [r11_647_TrMRF] | -0.0625 ± 0.17
SAGGSAGGSAGGMILTGDRAEILARLEAEGLGVAEEETVEEGDAPVTPVRVEVPPGAAGSAGGSAGGSAGGS [r10_885_JUSTAS] | 0.561 ± 0.11
SAGGSAGGSAGGKLTLKLGDYEVEVEWNPDEDVFIAEFPGDPRIARLRIPDDKIEIEPIESAGGSAGGSAGG [r7_156_TrMRF] | 0.392 ± 0.11
SAGGSATFEEALREVAEPTGAVPYVDPETGVAYVDFPDGKELEIEVPDGDRIEVRVLPDGRAVARGSAGGSA [r15_256_TrMRF] | < -1
SAGGKKVIIPFKSPEQVKDWLENAPPGHDKVEIFSPETGYMAEFEVDPKENKIKEIKWERFDPDDGMFSAGG [r13_945_TrROS] | -0.372 ± 0.46
SAGGSAGGSQWIEIELPLPNGRNIQIEMWPNNGMVDVEWPDGKEVEFPVETADDALDRVLDALSAGGSAGGS [r12_866_TrROS] | 0.0352 ± 0.21
SAGGFKIERERDPDNGIRKIEFRFPDNGYRVKATINPDNDKIHIWGPNPAIREALPELGITNVEVEPWSAGG [r13_511_TrROS] | < -1
SAGGSAGGSAGGSKTKTISFPMPWDDIPELAEELKDKGPVTIEHQDPDGNPREFTIPPDSAGGSAGGSAGGS [r4_341_TrROS] | 0.0258 ± 0.19
SAGGSAGGSAVEFTDPNGAEVLEIKPLPDGTTRVLTKLPGGEIPIVTYDPNTGKITTTLLPASAGGSAGGSA [r18_483_JUSTAS] | -0.251 ± 0.2
SAGGSAGGSAGGSKVNDVTAEKNFLVFTEDGRVLGKGEVERAFAAGAGPIGAVPLPPGASAGGSAGGSAGGS [r4_47_TrMRF] | < -1
SAGGMTVTLRLTDPAGEEYTVTVTKTEGKSTATVYGPGGELVETRDFSSAEEAIAYLRAQGYTVEVIESAGG [r13_315_JUSTAS] | 5.34 ± 0.081
